Measured values: the supplement of paper PMC9112550, “Optimization of the antimicrobial peptide Bac7 by deep mutational scanning” (BMC Biology, 2022)

Test system: Escherichia coli TOP10
Assay: shrunken log2 fold change of peptide-encoding DNA abundance (4.5 h post-induction vs induction); higher = less antimicrobial activity (less host growth inhibition)
Settings: time post-induction: 4.5 h; library: site-saturation at positions 5, 18, 19, 20
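Note: peptides expressed intracellularly from a pBAD plasmid library in pooled LB shake-flask culture, induced with 0.3% L-arabinose, DNA abundance read by NGS, three biological replicates, DESeq2 with apeglm shrinkage.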

Sequence	shrunken log2 fold change
RRIRGRPPRLPRPRPRPKTEPRP	0.713
RRIRGRPPRLPRPRPRPKVAPRP	0.538
RRIRGRPPRLPRPRPRPKVGPRP	0.721
RRIRGRPPRLPRPRPRPKVHPRP	0.598
RRIRGRPPRLPRPRPRPLALPRP	0.665
RRIRGRPPRLPRPRPRPLAYPRP	0.721
RRIRGRPPRLPRPRPRPLCKPRP	0.529
RRIRGRPPRLPRPRPRPLCSPRP	0.496
RRIRGRPPRLPRPRPRPLEWPRP	1.03
RRIRGRPPRLPRPRPRPLGDPRP	0.624
RRIRGRPPRLPRPRPRPLGNPRP	0.17
RRIRGRPPRLPRPRPRPLHEPRP	0.74
RRIRGRPPRLPRPRPRPLHVPRP	-0.0922
RRIRGRPPRLPRPRPRPLICPRP	0.147
RRIRGRPPRLPRPRPRPLIMPRP	0.206
RRIRGRPPRLPRPRPRPLIPPRP	-0.0737
RRIRGRPPRLPRPRPRPLKVPRP	0.271
RRIRGRPPRLPRPRPRPLKWPRP	0.367
RRIRGRPPRLPRPRPRPLMHPRP	0.592
RRIRGRPPRLPRPRPRPLMPPRP	0.285
RRIRGRPPRLPRPRPRPLNLPRP	-0.018
RRIRGRPPRLPRPRPRPLPSPRP	0.83
RRIRGRPPRLPRPRPRPLPWPRP	0.702
RRIRGRPPRLPRPRPRPLQFPRP	0.312
RRIRGRPPRLPRPRPRPLSVPRP	0.383

Sequence	shrunken log2 fold change
RRIRGRPPRLPRPRPRPLTDPRP	0.284
RRIRGRPPRLPRPRPRPMAAPRP	1.4
RRIRGRPPRLPRPRPRPMALPRP	-0.0079
RRIRGRPPRLPRPRPRPMATPRP	1.37
RRIRGRPPRLPRPRPRPMCAPRP	1.88
RRIRGRPPRLPRPRPRPMCLPRP	0.0563
RRIRGRPPRLPRPRPRPMEEPRP	0.48
RRIRGRPPRLPRPRPRPMETPRP	0.00487
RRIRGRPPRLPRPRPRPMFAPRP	1.57
RRIRGRPPRLPRPRPRPMFHPRP	0.074
RRIRGRPPRLPRPRPRPMFLPRP	-0.0125
RRIRGRPPRLPRPRPRPMHLPRP	0.186
RRIRGRPPRLPRPRPRPMHRPRP	0.405
RRIRGRPPRLPRPRPRPMNGPRP	0.00709
RRIRGRPPRLPRPRPRPMNLPRP	0.00442
RRIRGRPPRLPRPRPRPMPRPRP	1.03
RRIRGRPPRLPRPRPRPMQKPRP	0.61
RRIRGRPPRLPRPRPRPMQQPRP	2.08
RRIRGRPPRLPRPRPRPMRAPRP	1.74
RRIRGRPPRLPRPRPRPMRWPRP	0.844
RRIRGRPPRLPRPRPRPMSPPRP	0.00263
RRIRGRPPRLPRPRPRPMTFPRP	0.536
RRIRGRPPRLPRPRPRPMTPPRP	1.07
RRIRGRPPRLPRPRPRPMVGPRP	0.108
RRIRGRPPRLPRPRPRPMWNPRP	0.557

Sequence	shrunken log2 fold change
RRIRGRPPRLPRPRPRPMYDPRP	0.233
RRIRGRPPRLPRPRPRPMYSPRP	0.208
RRIRGRPPRLPRPRPRPMYVPRP	-0.0802
RRIRGRPPRLPRPRPRPNDAPRP	0.0548
RRIRGRPPRLPRPRPRPNDKPRP	0.342
RRIRGRPPRLPRPRPRPNGLPRP	0.377
RRIRGRPPRLPRPRPRPNIPPRP	-0.251
RRIRGRPPRLPRPRPRPNKCPRP	0.139
RRIRGRPPRLPRPRPRPNKPPRP	-0.035
RRIRGRPPRLPRPRPRPNPGPRP	0.158
RRIRGRPPRLPRPRPRPNPLPRP	0.217
RRIRGRPPRLPRPRPRPNPTPRP	0.602
RRIRGRPPRLPRPRPRPNPVPRP	0.145
RRIRGRPPRLPRPRPRPNQWPRP	0.259
RRIRGRPPRLPRPRPRPNRLPRP	0.104
RRIRGRPPRLPRPRPRPNTIPRP	-0.184
RRIRGRPPRLPRPRPRPNWTPRP	0.0497
RRIRGRPPRLPRPRPRPNWVPRP	0.325
RRIRGRPPRLPRPRPRPNYNPRP	-0.262
RRIRGRPPRLPRPRPRPNYPPRP	0.0611
RRIRGRPPRLPRPRPRPPALPRP	0.881
RRIRGRPPRLPRPRPRPPAQPRP	1.4
RRIRGRPPRLPRPRPRPPDDPRP	1.34
RRIRGRPPRLPRPRPRPPDWPRP	1.24
RRIRGRPPRLPRPRPRPPFAPRP	1.91
